For test [1], the target named is T1, human CCR8 (human, UniProt P51685 1-355). Description: flow cytometry, Jurkat-human CCR8 cells. On the procedure: To evaluate the binding activity of anti-CCR8 antibodies to bind CCR8 expressed on living cells, Jurkat cells were engineered to over-express human CCR8. Jurkat-human CCR8 cells were seeded in 96-well plate and incubated with a series of dilutions of anti-CCR8 antibodies. Goat anti-human IgG was used as secondary antibody to detect antibody binding to the cell surface. EC50 values for dose-dependent binding to human CCR8 were determined by fitting the dose-response data to the four-parameter logistic model with GraphPad Prism. As shown in Table 4 and FIG. 3 the CCR8 antibodies had high binding affinity to human CCR8.
T1 sequence (P51685 whole entry): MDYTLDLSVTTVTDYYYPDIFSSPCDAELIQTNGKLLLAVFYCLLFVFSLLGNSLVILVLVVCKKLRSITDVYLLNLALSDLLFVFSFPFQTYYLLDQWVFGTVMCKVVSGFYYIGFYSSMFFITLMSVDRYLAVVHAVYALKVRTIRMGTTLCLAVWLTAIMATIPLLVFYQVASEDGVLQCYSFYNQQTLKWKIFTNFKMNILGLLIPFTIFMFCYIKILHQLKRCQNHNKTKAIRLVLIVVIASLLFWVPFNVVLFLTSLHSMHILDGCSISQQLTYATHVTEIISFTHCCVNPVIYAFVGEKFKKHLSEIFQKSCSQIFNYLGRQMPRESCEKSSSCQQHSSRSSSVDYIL
Background: In flow cytometry, cells or beads pass a laser one at a time.

For test [2], the target named is T1, human CCR8. Briefly: flow cytometry, stimulated human primary Treg cells (high CCR8). The procedure: Treg binding of the humanized antibodies was measured on Treg cells from human PBMC. Briefly, CD25+ cells were isolated from human PBMC. The cells were stimulated with IL-2, TGFβ and anti-CD3/CD28 beads for high CCR8-expression level Treg cells. Next, Treg cells were seeded in 96-well plate and incubated with a series of dilutions of anti-CCR8 antibodies. Goat anti-human IgG was used as secondary antibody to detect antibody binding to the cell surface. EC50 values for dose-dependent binding to human CCR8 were determined by fitting the dose-response data to the four-parameter logistic model with GraphPad Prism. As shown in FIG. 6A and Table 12 the hu305-5W-3a had the highest binding affinity to CCR8 on Treg cells of the humanized antibodies. As noted in Table 12 and FIG. 6A below, the hu305-5W-3a antibody also had the lowest IC50 regarding reducing ligand-receptor interaction.

Test [3] addresses T1, human CCR8. Briefly: cell-based or functional assay.
For test [4], the target named is T1, human CCR8. Description: cell-based or functional assay. This is another data set of the same source.
The target in the next test is T2, Cynomolgus Monkey CCR8 (cynomolgus monkey, UniProt O97665 1-356 (rhesus entry)).
T2 construct: also called cyno CCR8; cynoCCR8
T2 sequence (O97665 other isoform, or with tags, fused parts or gaps): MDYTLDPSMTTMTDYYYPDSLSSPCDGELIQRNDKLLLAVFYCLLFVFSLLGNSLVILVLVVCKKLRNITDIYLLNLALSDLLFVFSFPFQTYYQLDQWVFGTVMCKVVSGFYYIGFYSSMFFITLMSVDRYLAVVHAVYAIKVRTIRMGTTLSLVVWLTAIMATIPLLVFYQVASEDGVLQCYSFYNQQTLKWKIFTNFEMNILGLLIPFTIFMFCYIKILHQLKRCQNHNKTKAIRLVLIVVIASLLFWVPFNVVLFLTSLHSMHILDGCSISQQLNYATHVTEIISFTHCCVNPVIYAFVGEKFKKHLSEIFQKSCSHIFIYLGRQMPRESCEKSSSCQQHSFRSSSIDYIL
Description: flow cytometry, 293T-cynoCCR8 cells. The procedure: Goat anti-human IgG was used as secondary antibody to detect antibody binding to the cell surface. EC50 values for dose-dependent binding to cyno CCR8 were determined by fitting the dose-response data to the four-parameter logistic model with GraphPad Prism.

In test [5] the target is T1, human CCR8. Briefly: flow cytometry, Jurkat/huCCR8 cells, Test1. On the procedure:
(§1) To evaluate the binding activities of anti-CCR8 antibodies to bind native CCR8 on live cells, Jurkat cells (ATCC TIB-15) were engineered to over-express human CCR8. Live Jurkat/huCCR8 cells were seeded in 96-well plate, and were incubated with a series of dilutions of anti-CCR8 antibodies. Alexa Fluor® 647 anti-Human IgG Fc Antibody (Biolegend cat: 410714) was used as a secondary antibody to detect antibody binding to CCR8 expressed on the cell surface. EC50 values for dose-dependent binding to human native CCR8 were determined by fitting the dose-response data to the four-parameter logistic model with GraphPad Prism.

Test [6] addresses T1, human CCR8. Briefly: flow cytometry, Jurkat/huCCR8 cells, Test2. On the procedure: as §1
The target of test [7] is T3, human CCR8 N-terminal domain-mouse Fc tag fusion protein (human (CCR8 part), mouse IgG2a Fc).
T3 construct: also called huCCR8-N-mIgG2a; human CCR8 N-terminal protein
T3 chain: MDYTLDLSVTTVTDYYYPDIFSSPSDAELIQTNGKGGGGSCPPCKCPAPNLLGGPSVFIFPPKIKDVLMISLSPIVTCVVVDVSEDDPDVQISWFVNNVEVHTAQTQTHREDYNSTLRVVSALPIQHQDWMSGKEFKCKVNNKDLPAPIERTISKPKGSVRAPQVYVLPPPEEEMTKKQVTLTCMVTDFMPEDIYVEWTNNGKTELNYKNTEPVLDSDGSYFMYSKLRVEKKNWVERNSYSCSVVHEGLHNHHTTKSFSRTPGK
Description: ELISA, plate coated with human CCR8 N-terminal domain-Fc fusion. On the procedure: To determine whether anti-CCR8 antibodies bind to the N-terminal domain of human CCR8, ELISA plates were coated with human CCR8 N-terminal domain-mouse Fc tag fusion protein (SEQ ID NO: 28 and 29) overnight at 4° C. After washing and blocking, serially diluted anti-CCR8 antibodies were added to plates and incubated for 1 hour at room temperature. After washing, diluted HRP goat anti-human IgG Fc or HRP goat anti-mouse kappa chain (for 433H) secondary antibodies were added to plates and incubated for 45 minutes at room temperature. After washing, TMB substrate was added to plates for developing and then stopped by adding TMB substrate stop solution. The absorbance was read at 450 nm using a plate reader. […] It is a non CCR8 N-terminal loop binder.
(In general: ELISA stands for enzyme-linked immunosorbent assay.)

For test [8], the target named is human CCR8 N-terminal domain-mouse Fc tag fusion protein (human (CCR8 part), mouse IgG2a Fc). Described as above.
Test [9] addresses T1, human CCR8. Briefly: FACS binning, Jurkat-huCCR8, 200 nM each; row = unlabeled 1st Ab; competitor (APC labeled 2nd Ab): 433H.
Test [10] concerns the target T1, human CCR8. Description: FACS binning, Jurkat-huCCR8, 200 nM each; row = unlabeled 1st Ab; competitor (APC labeled 2nd Ab): 4A19.
Test [11] deals with T1, human CCR8. Briefly: FACS binning, Jurkat-huCCR8, 200 nM each; row = unlabeled 1st Ab; competitor (APC labeled 2nd Ab): Ch127.
The target of test [12] is T1, human CCR8. Briefly: FACS binning, Jurkat-huCCR8, 200 nM each; row = unlabeled 1st Ab; competitor (APC labeled 2nd Ab): Ch211.
Test [13] concerns the target T1, human CCR8. Description: FACS binning, Jurkat-huCCR8, 200 nM each; row = unlabeled 1st Ab; competitor (APC labeled 2nd Ab): Ch305.
The target in test [14] is T1, human CCR8. Description: FACS binning, Jurkat-huCCR8, 200 nM each; row = unlabeled 1st Ab; competitor (APC labeled 2nd Ab): Ch326.
For test [15], the target named is T1, human CCR8. Description: FACS binning, Jurkat-huCCR8, 200 nM each; row = unlabeled 1st Ab; competitor (APC labeled 2nd Ab): Ch366-2.

Numbering of substitutions follows the chain as printed. Read-outs that look alike come from different tables or passages of the source.

The EC50 is the midpoint of the concentration-response curve.

Turning to hIgG (antibody), the Emax with human CCR8 [1] amounted to 204 RFU; with human CCR8 [2], 60 RLU.

B1: Ch305-AF (antibody, V domains shown)
VH: QVQMKQSGPSLVQPSQSLSITCTVSGFSLTSYGVHWVRQSPGKGLEWLGVIWRGGTTDYNAAFMSRLSFTKDSSKSQVFFKLNSLQADDTAIYYCAKNRVTTVVAPNFYAMDYWGQGTSVTVSS
VL: DIVMTQSPSSLAVSVGEKVTMSCKSSQSLLYSGNQKNYLAWYQQKPGQSPKLLIYWASTRKSGVPDRLTGSGSGTDFTLTISSVKAEDLAAYYCQQYYTYPLTFGAGTRLEIK
notes: human IgG1/kappa; also called afucosylated Ch305
Consider B1, for which, in the test with human CCR8 [3], the “IC50(nM), blocking activity” value came out at 1.84 nM and the “Imax(%), blocking activity” value came to 87.8%. For the same molecule, in the test with human CCR8 [4], the “EC50 (nM), NK cell mediated cytotoxicity (ADCC) on CCR8-expressing Treg” value (“EC50 (nM), NK cell mediated cytotoxicity” for short) was found to be 0.064 nM and the “Emax (%), NK cell mediated cytotoxicity (ADCC) on CCR8-expressing Treg” value (shortened to “Emax (%), NK cell mediated cytotoxicity”) came out at 75.1%. In the test with Cynomolgus Monkey CCR8, a half-maximal response (EC50) required 14.8 nM and the Emax stood at 11900 RLU. In addition, in the test with human CCR8 [5], a half-maximal effect (EC50) was put at 3.88 nM and the Emax amounted to 25200 MFI. Moreover, in the test with human CCR8 [6], the EC50 is 4.75 nM and the Emax is 16600 MFI. Moreover, in the test with human CCR8 [2], the EC50 was 90.7 nM and the Emax came to 1750 RLU.

B2: 4A19 (antibody, V domains shown)
VH: QVQLVQSGAEVKKPGASVKVSCKASGYTFTDSEMHWVRQATGQGLEWMGAIQPETGGTAYNQKFKARVTMTRDTSISTAYMELSSLRSEDTAVYYCARRRRNFDYWGQGTLVTVSS
VL: DIVMTQTPLSLSVTPGQPASISCRSSQSLFHSSGNTYLHWYLQKPGQPPQLLIYKVSNRFSGVPDRFSGSGSGTDFTLKISRVEAEDVGVYYCSQSTHVPFTFGQGTKLEIKR
In test [7], B2 gave an EC50 of 0.11 nM.

B3: 433H (antibody, from another filing, V domains shown)
VH: EVQLVETGGGLVQPKGSLRLSCAASGFPFNTFAMNWVRQAPGKGLEWLARIRSKSNNYATYYADSVKDRFTISRDDSRRMLYLLMNNVKFEDTAIYYCVRGKENNYGYAMDYWGQGTSVTVSS
VL: DIVMTQAAPSVPVTPGESVSISCRSSQSLLHSNGNTYLYWFLQRPGQSPQLLIYRMSNLASGVPDRFSGSGSGTAFTLRISRVEAEDVGVYYCMQHLEYPFTFGIGTKLELKR
In turn, B3 gave an EC50 in [8] of 0.94 nM. The % of the maximum binding of the APC labeled antibody with human CCR8 [9] was determined as 3.03%; with human CCR8 [10], 8.43%; with human CCR8 [11] it was 2.55%; with human CCR8 [12], 39.9%; in the test with human CCR8 [13], 28.9%; with human CCR8 [14] it was 1.87%. In the test with human CCR8 [15], this molecule came in with a % of the maximum binding of the APC labeled antibody of 14.2%.

B4: hu305-5W-3a-AF (antibody, V domains shown)
VH: QVQLKQSGPGLVKPSETLSLTCTVSGFSLAVYGVHWVRQPPGKGLEWLGVIWRGGTTDYNPSLKSRLTFSKDSSKSQVSLKLSSVTAADTAVYYCAKNRVTTVVAPNFYAMDYWGQGTLVTVSS
VL: DIVMTQSPDSLAVSLGERATINCKSSQSLLYSGNQKNYLAWYQQKPGQPPKLLIYWASTRKSGVPDRFSGSGSGTDFTLTISSLKAEDVAVYYCQQYYTYPLTFGQGTRLEIK
notes: also called afucosylated hu305-5W-3a
For B4, in the test with human CCR8 [3], the “IC50(nM), blocking activity” value was determined as 1.82 nM and the “Imax(%), blocking activity” value was 87.3%. For the same molecule, in the test with human CCR8 [4], the “EC50 (nM), NK cell mediated cytotoxicity” value was found to be 0.059 nM and the “Emax (%), NK cell mediated cytotoxicity” value was determined as 75.5%. Also, in the test with Cynomolgus Monkey CCR8, it took 12.5 nM to reach a half-maximal effect (EC50) and the Emax amounted to 12400 RLU. In addition, in the test with human CCR8 [6], a half-maximal response (EC50) required 2.98 nM and the Emax stood at 16700 MFI. In the test with human CCR8 [2], the EC50 came out at 47.6 nM and the Emax is 2030 RLU.

B5: hu305-4F-2m-AF (antibody, V domains shown)
VH: B4 VH with K5Q, Q6E, E16Q
VL: B4 VL with A19V, P49S, K85Q, V91A
Consider B5, for which, in the test with human CCR8 [3], the “IC50(nM), blocking activity” value is 13.1 nM and the “Imax(%), blocking activity” value is 75.6%. In the test with human CCR8 [4], the “EC50 (nM), NK cell mediated cytotoxicity” value was 0.585 nM and the “Emax (%), NK cell mediated cytotoxicity” value was determined as 70.9%. In the test with Cynomolgus Monkey CCR8, this molecule came in with an EC50 of 16.6 nM and an Emax of 12300 RLU. Further, in the test with human CCR8 [5], a half-maximal effect (EC50) was put at 5.83 nM and the Emax came to 22900 MFI. Besides, in the test with human CCR8 [2], the midpoint of the response, the EC50, lay at 136 nM and the Emax was 1860 RLU.

B6: hu305-4F-2l-AF (antibody, V domains shown)
VH: B4 VH with K5Q, Q6E, E16Q
VL: B4 VL with A19V, I21M, P49S, K85Q, V91A
notes: also called hu305-4F-21-AF; hu305-4F-21
As to B6, in the test with human CCR8 [3], the “IC50(nM), blocking activity” value came out at 6.19 nM and the “Imax(%), blocking activity” value stood at 78%. Moreover, in the test with human CCR8 [4], the “EC50 (nM), NK cell mediated cytotoxicity” value came out at 0.396 nM and the “Emax (%), NK cell mediated cytotoxicity” value was determined as 72.3%. Further, in the test with Cynomolgus Monkey CCR8, a half-maximal response (EC50) required 16.7 nM and the Emax was found to be 12500 RLU. Further, in the test with human CCR8 [5], it took 6.01 nM to reach a half-maximal effect (EC50) and the Emax was 23500 MFI. Moreover, in the test with human CCR8 [2], the EC50 was 117 nM and the Emax stood at 1760 RLU.

B7: hu305-5P-3a-AF (antibody, V domains shown)
VH: B4 VH with A30T, V31S, L67V, S76N
VL: B4 VL
Consider B7, for which, in the test with human CCR8 [3], the “IC50(nM), blocking activity” value came to 10.5 nM and the “Imax(%), blocking activity” value was found to be 77.1%. In addition, in the test with human CCR8 [4], the “EC50 (nM), NK cell mediated cytotoxicity” value was determined as 0.077 nM and the “Emax (%), NK cell mediated cytotoxicity” value came out at 73.7%. In the test with Cynomolgus Monkey CCR8, this molecule registered an EC50 of 9.83 nM and an Emax of 12600 RLU. In the test with human CCR8 [6], the EC50 stood at 2.99 nM and the Emax worked out at 17500 MFI. Further, in the test with human CCR8 [2], the concentration for a half-maximal effect (EC50) was 35.2 nM and the Emax worked out at 1720 RLU.

The values are drawn from patent US20250115671A1 (BEIGENE, published 2025).
